# Results reported in the DeepSol protein solubility set.
# Experiment: soluble on expression in E. coli; label from the status in PepcDB or PDB records
row,Sequence,soluble on expression in E. coli
1,MKHVPIRMCVACRRRRPKGELLRILVTEEGFVIDPSGKRPGRGAYVCPDSPECRSEKRLRRFAGAKARALAEALAAYLGGEDGQGKDLPAG,soluble
2,MRGSHHHHHHGSDPAPDAVAQQWAIFRAKYLRPSGRVVDTGNGGESHSEGQGYGMLFAASAGDLASFQSMWMWARTNLQHTNDKLFSWRFLKGHQPPVPDKNNATDGDLLIALALGRAGKRFQRPDYIQDAMAIYGDVLNLMTMKAGPYVVLMPGAVGFTKKDSVILNLSYYVMPSLLQAFDLTADPRWRQVMEDGIRLVSAGRFGQWRLPPDWLAVNRATGALSIASGWPPRFSYDAIRVPLYFYWAHMLAPNVLADFTRFWNNFGANALPGWVDLTTGARSPYNAPPGYLAVAECTGLDSAGELPTLDHAPDYYSAALTLLVYIARAEETIK,soluble
3,MRCPWRKTRRHSDNGWYGPRNQIRPDDHRLHRKVRKSRGDSRRAGNGSPRARCFEGAQRRGKSDGLSECGRMKNLLEMVELVRGKRMKIAVGAAEDEEVLKAVARAKEEEIVDPVLFGKRKDIETLVERMNLELEAEIVHVEDPFEAVRKAVESVSRNETQILMKGKIKTSDLFSVFLKKEYGLRTGRTLSAVSVHEVPGYHKILIISDGGLVISPNLQQRMDIVENSILVARALGIEKPKIALLGTGDLKSPLTLEIAALSKIFQQRNDCIVDGPLTLDLAISEELASKAGNSPVAGDADILIVPSIETGNILSKSLVYMARGRAAIVVVGGRVPVVLTSRADDEETRFLSIALSVLVAQKKG,soluble
4,YHSTDGDTILVGKNNKQNDYLTNKKARKNHLWFHTKDIPGSHVVILNESPSETTIKEAAMLAGYFSKAGSSAQIPVDYTEIRHVHK,not soluble
5,MSLTIMPDIARMKRELAEIIAIRSENPPGGEADVAVYVERLLKDEGFSVSLTEYKPGRFNVEARIENGPGPVFAFNTHMDTVPAGDGWTTDAFILREDDGKLFGRGACDCKGPLIAMIEAMRMLAADRTAWSGTLLGVFVGDEEIASEGAKYYAAARPKIDFAVVGEPTSNTTYSAHKGSLRPVVRVHGVTAHSGTPHLGDNAIYRAGQLLTLVEAFHNNVVRKRTHPLVGEASLTVTRISGGHADNVLPGSCDLLLDRRMVPGESEDAVKQEFATLLKDAYDRFGVKAEIVDYKATTGSATETAADQSIVAASLEACRASGTSDPGPFGFQGGCDLVHFRSLGAQGTVIGPGSLSVAHKADEFVPLDEFVTCSVIYRDVARKMLRPNEGHHHHHH,soluble
6,RLPKKHYTDSLDYALFKELIRVSVASNNKQILDYYEHHCHKKNPATACQYGYVLALLNNNNFQKAAEKLNPLLLQDNSNLNFQIAMAQAELGLSQYQSALSRLAELQNNFPDNYAALMAYAQGLLTANQPQKATAVLLKGSRQYKEDLPLCRELARAQA,not soluble
7,FCNAFTPVKAKEVKALILDFLHTNKITLQREIESSFITSAIIAHTGIDAFSISLLLDKNK,not soluble
8,MLELYHRKKLFNLLKAPLKKKPFFFIYNTKQTYRDKTPMRNIDFSKLHLSEDVRANEKVHNKRNLFMSNKIIHYLPPKRHD,not soluble
9,MAKEFQLTHIFKKVSEFKDGECRCGPLEEHFNVEWLLYINRKDDELAVFLGCNSLQGTEETTLSIYVELKFTLKNSIGTRVTKIAKCLLSNKSTESDFGLNKFIGWETLLKDYLIDDSIIIEAKIKITKMTGFPRKELRSFDESSEEYSDMIIAVGDRKFYVLKQLLASNSTHFQSLIPLDFEEMDCEGKSEITLPDINPSDFQCLLEVLYGEPAMDDENVEGILHSAHMYKMTKVIRNCEEFLSNKSEKPMRDKFKIAKQYQLESLKKSCLSKIQTIQDIKSAMAGDLSDMDATVVAALLEKSVTIEPPSKNGRPY,soluble
10,MSLHHLTTYITHDTLISALGFGTQENLEAIRSYHSGITLQTDKRIADTPLLAATLSQERLQQQAEAIGVSGYPRMEQLFILTINELIRQSGQTLEDKTCGLILSTTKGNIDLLARHTEHPDEAVFLWKMAENIAGYFHAEERVHVISNACISGVSALIAGKRMIENGIYRRVIVAGGDLLSHFITSGFGSFRSLSSRPCRPYDSSRDGLNLGEACGAVLLSSEGTEEHVILSGGAVSNDANHISGPSRTGDGLYFAIRQAMQEAGTAPQDISFVNAHGTATVYNDEMESKALTLAHLEQVPVHSLKPYFGHTLGASGIIESIVCMHELKQGILFGTPGYETPGVPMPIPVYATHRSIPMKHCVKTASGFGGCNAAIVLSLPEYTPFKDEDNTLPEIRCTREVRIENSSVFINNELIFHSEEPDFGTFIRDTYKKTGGNNLKFYKMDDLCKLGYVAAEYLLEGKTFAPLEMGMLLANAASSLHTDIRHQQLIDREGDQAASPAVFVYTLPNVVSGEICIRHKIQGENTFFITEAYQPEKLERYARIVMQKGKLNYCIIGWCELWKNTYKAVFKLIEKEGHHHHHH,soluble
11,MAKSYDYQSAFDIIGPVMMGPSSSHTAGAVKIGNSARAVLGDMPKHIEIRYYESFAKTHQGHGTDVAIVGGAMGYSTFDSRIKSSLDIAKDENITIDIIEDEGESIGQHPNCAYIKANTKDGRYIEVIGISIGGGTIKLKGINVNGLNVELNHGLPMLVIDGNMNKAKINHLINDLSDMDLDLGEELIETNDNEGLVVFPLNKAISESALNIIKDKHSDLNVSYIK,not soluble
12,MGHHHHHHSHMRRFQRSTVIDAPRELVWAFHEQADVLEQLTPPWLPVEVVRREGGLGPGAVSEFRLWLGPVPIRWVATHNDDYEPGRCFCDRQSQGPFADWLHRHIFSREGDRTRLIDEVEYALPGGWLPELSVCPVVDAQLERLFAYRQQVTKQWCESRRDAFLQSNRTTKGLQSL,not soluble
13,GGSCFKCGKKGHFAKNCHEHAHNNAEPKVPGLCPRCKRGKHWANECKSKTDNQGNPIPPH,soluble
14,MSNHQVALQFEDGVTRFICIAQGETLSDAAYRQQINIPMDCREGECGTCRAFCESGNYDMPEDNYIEDALTPEEAQQGYVLACQCRPTSDAVFQIQASSEVCKTKIHHFEGTLARVENLSDSTITFDIQLDDGQPDIHFLAGQYVNVTLPGTTETRSYSFSSQPGNRLTGFVVRNVPQGKMSEYLSVQAKAGDKMSFTGPFGSFYLRDVKRPVLMLAGGTGIAPFLSMLQVLEQKGSEHPVRLVFGVTQDCDLVALEQLDALQQKLPWFEYRTVVAHAESQHERKGYVTGHIEYDWLNGGEVDVYLCGPVPMVEAVRSWLDTQGIQPANFLFEKFSAN,soluble
15,GSGNRTRKRRMINASVWMPPMENEEKNRKNHQSITSSQHSLLEASYDGYIKRQRNELQHYSLYPNPQGYGNGNDFLGDFNHTNLQIPTEPEPESPIKLHTEAAGSYAITEPITRESVNIIDPRHNRTVLHWIASNSSAEKSEDLIVHEAKECIAAGADVNAMDCDENTPLMLAVLARRRRLVAYLMKAGADPTIYNKSERSALHQAAANRDFGMMVYMLNSTKLKGDIEELDRNGMTALMIVAHNEGRDQVASAKLLVEKGAKVDYDGAARKDSEKYKGRTALHYAAQVSNMPIVKYLVGEKGSNKDKQDEDGKTPIMLAAQEGRIEVVMYLIQQGASVEAVDATDHTARQLAQANNHHNIVDIFDRCRPERE,soluble
16,MSFRFLILLLLASTLLVNSFPIGKDNESDESEVEVDTTTEAENIEVESQEASLDEQLNEVSEDPTREKRGLYSSERTEEEVEISHGMHHREKRHSEHLPHPDPPSHTAKRSTEHHRVKRSEGHPHEKKATHSPEGHIVAKDDHHGHEKRSSDSHHGHQKRSVDEHHGHQKKNAEDHHEHQKRSEHVEHQAEMHEHQKRSTQEVSGHPEHHLVKRSGGEGGHRHHRSTDQGLDEDEPEDEIQTDENDEVTEEPGSRKRRNTDTPMPSFPSDHDSEHSNSVAIRVKRVSRAGSSHKVRTLNKNRGNSKAGETTQNDSLTPNSGGVFNS,not soluble
17,MAHHHHHHMPLRIGGFNVCCYHDCTNAAAIHAELKRRHIDAAVVDHAFLISPLQLAVALFRVEGSADMLTTRSPFTISPPLAEASSPSPTSTSASPSLPPLLQQQPTRRVSNSRQIFAALSLSHNLDRILQVLPPGPQTTSVVIIYKRSGSARAAAVSFADDVGADSAVASTVPDGDGLDATINACVQLTNSAAQAHTFALITEPFWTGAAFAFADVSKVALFYGISESMLLAAQRSMTRADVRRVCVGAESQEAPAQVLRWHALEVCVTTLLSACTA,soluble
18,MSRHLTFHIITNVPYSNLNRDDSGTPKRVSLGGALRALHSSQSIKRGIRTKYELASLDTSIRSGKLVEEVVRVGLDLKPEVDEKLLRKGAAKIIGSLTKGESSEGESARSAWMSREEITTAAQTVIDGQEDSDFIQDNRTGSLAIAAFGRMFANAPKKNTEAALAVSPGVTTHAVTIETDYFSTVDDVREREHDSGATFLGVARYVNGTFYRTVSIDKEQLRESWSGFGQEESVDNLRELIKAIVYGAPRGKENSTAPYTLPSLVFAEEQHYRTAYSFETPVLVGKDGGFEFPTICELDRQFARARSFDKGNFGPLEVVSGTAVLEDEQFEGVQRSDLNGLIEAVVNWVTND,not soluble
19,MTAFSTLNVLPPAQLTNLNELGYLTMTPVQAAALPAILAGKDVRVQAKTGSGKTAAFGLGLLQQIDASLFQTQALVLCPTRELADQVAGELRRLARFLSNTKILTLCGGQPFGMQRDSLQHAPHIIVATPGRLLDHLQKGTVSLDALNTLVMDEADRMLDMGFSDAIDDVIRFAPASRQTLLFSATWPEAIAAISGRVQRDPLAIEIDSTDALPPIEQQFYETSSKGKIPLLQRLLSLHQPSSCVVFCNTKKDCQSVCDALNEVGQSALSLHGDLEQRDRDQTLVRFANGSARVLVATDVAARGLDIKSLELVVNFELAWDPEVHVHRIGRTARAGNSGLAISFCAPEEAQRANIISDMLQIKLNWQTLPANSSIVPLEAEMATLCIDGGKKAKMRPGDVLGALTGDIGLDGADIGKIAVHPAHVYVAVRQAVAHKPWKQLQGGKIKGKTCRVRLLK,soluble
20,MGSDKIHHHHHHMKNAMLVLCVFLGLSACADRDLMPIVPEAVEIGTPYTVFSTTTRAQEADGTYGFRRSEQLRMMEMTVTIPPNHSPGELSYRYKNPDPHKNFAIAEELPVASVSDLRARFLREQRENNWPLREVTIFVHGYNSTHPETAYRSAQMAHDVELPGSLVMYSWPSRGRAFGYAYDIDSMLFARDGLEETVRRVKQAGAERIILVAHSMGTALAMEMLRQADLRNPGWAARTLNGGVILISPDLDVDVFESQMMDLKQVPQPFGVMVSEKDHILNISGRLRGTSEGERLGNIKSAERLMKWPIEVIDLTAFNADAASGHFVAATSPSLLAVIRSASNVSRLFGPVDPTLFQQILPQSQTIVTDHGKLMLARQQRQEER,not soluble
21,DPDIQSTVEAMLLDRVDALPPKVSMAVLVMDNDSLEVKAYAGSADFTDDSRYAHVDMVRGVRSPGSTLKPFLYALALDEGLIHSESLLLDAPLSFGGYAPGNFQAAFAGPVSVAQALQRSLNVPAVDLLDRVGPARFASVMLAGGVHLRMPAGAVPNLSLILGGGGTTLEELVGAYRALARGGLSGRPRLRASQPRIEARLMSPGAAWIVRDILELGGHPDRPLFQGAAAGRQLAWKTGTSFGFRDAWAVGVTDRYTIGAWVGRPDGTPNPGFFGANVAAPLLQDIVAALPAGAPVPRT,not soluble
22,KPEWMMIHRILNHSVDKKGHVHYLIKWRDLPYDQASWESEDVEIQDYDLFKQSYWNH,soluble
